By EC50 is commonly meant the concentration needed to bring the measured effect to its halfway point. Read a low EC50 as greater potency.

For data set [1] the following is noted: taken for 1 year; cited from earlier work.
The conditions of data set [2]: in vivo; cited from earlier work.
Data set [3] deals with T1, human GLP-1 receptor (Homo sapiens, UniProt P43220).
T1 construct: host or cells: CHO DG44
Description: cAMP response in CHO cell line expressing human GLP-1 receptor (CHO/GLP-1R). In kind it is cell-based. The conditions noted are these: Table 3, Fc conjugates, GLP-1, glucagon, 37° C. for 1 hour. The protocol:
The PCR product was cloned into the known animal cell expression vector x0GC/dhfr to prepare a recombinant vector x0GC/GLP1R.
CHO DG44 cell line cultured in DMEM/F12 (10% FBS) medium was transfected with the recombinant vector x0GC/GLP1R using LIPOFECTAMINE® (INVITROGEN®, USA), and cultured in a selection medium containing 1 mg/mL G418 and 10 nM methotraxate.
(§1) The cultured cells were washed with KRB buffer and suspended in 40 ml of KRB buffer containing 1 mM IBMX, and left at room temperature for 5 minutes. […] Then, 20 mL of cell lysis buffer was added for cell lysis, and the cell lysates were applied to a cAMP assay kit (Molecular Device, USA) to measure cAMP concentrations. EC50 values were calculated therefrom, and compared to each other.
(§2) Each of the cultured transformants was washed with KRB buffer and suspended in 40 ml of KRB buffer containing 1 mM IBMX, and left at room temperature for 5 minutes. […] Then, 20 ml of cell lysis buffer was added for cell lysis, and the cell lysates were applied to a cAMP assay kit (Molecular Device, USA) to measure cAMP concentrations using a Victor (PERKIN ELMER®, USA). EC50 values were calculated therefrom, and compared to each other (Table 3).

Data set [4] addresses T2, human glucagon receptor (Homo sapiens, UniProt P47871).
T2 construct: host or cells: CHO DG44
Kind of data set: cAMP response in CHO cell line expressing human glucagon receptor (CHO/GCGR). In kind it is cell-based. The conditions noted are these: Table 3, Fc conjugates, GLP-1, glucagon, 37° C. for 1 hour. The protocol: The PCR product was cloned into the known animal cell expression vector x0GC/dhfr to prepare a recombinant vector x0GC/GCGR.
CHO DG44 cell line cultured in DMEM/F12 (10% FBS) medium was transfected with the recombinant vector x0GC/GCGR using LIPOFECTAMINE®, and cultured in a selection medium containing 1 mg/mL G418 and 10 nM methotraxate.
as §1, §2

T2 sequence (P47871 26-477): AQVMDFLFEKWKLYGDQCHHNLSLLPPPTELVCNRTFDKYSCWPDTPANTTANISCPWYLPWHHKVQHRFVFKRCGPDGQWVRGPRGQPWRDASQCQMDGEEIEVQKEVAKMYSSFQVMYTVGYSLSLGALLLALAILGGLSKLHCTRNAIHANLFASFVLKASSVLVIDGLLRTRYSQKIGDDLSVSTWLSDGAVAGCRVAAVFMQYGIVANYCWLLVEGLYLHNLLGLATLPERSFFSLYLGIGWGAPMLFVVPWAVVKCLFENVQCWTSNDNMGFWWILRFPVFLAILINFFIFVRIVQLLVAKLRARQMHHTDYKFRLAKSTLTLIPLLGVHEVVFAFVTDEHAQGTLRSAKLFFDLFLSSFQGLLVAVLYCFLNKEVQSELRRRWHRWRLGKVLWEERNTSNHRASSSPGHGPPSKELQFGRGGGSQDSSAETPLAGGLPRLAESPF
T1 sequence (P43220 24-463): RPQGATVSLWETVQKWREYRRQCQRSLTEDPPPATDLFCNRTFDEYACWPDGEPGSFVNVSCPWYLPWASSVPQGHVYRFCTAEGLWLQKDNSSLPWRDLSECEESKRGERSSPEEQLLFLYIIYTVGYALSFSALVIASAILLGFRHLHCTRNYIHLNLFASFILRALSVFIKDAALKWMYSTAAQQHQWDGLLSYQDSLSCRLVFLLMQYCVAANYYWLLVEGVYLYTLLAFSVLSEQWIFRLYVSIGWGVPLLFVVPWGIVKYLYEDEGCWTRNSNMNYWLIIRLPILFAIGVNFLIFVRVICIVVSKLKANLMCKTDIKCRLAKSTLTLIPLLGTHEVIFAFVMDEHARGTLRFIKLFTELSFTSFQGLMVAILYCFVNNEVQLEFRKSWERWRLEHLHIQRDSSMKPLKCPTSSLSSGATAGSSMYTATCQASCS

Take `CCCCCCCCCCC[C@@H](C[C@@H]1OC(=O)[C@H]1CCCCCC)OC(=O)[C@H](CC(C)C)NC=O` [Orlistat]: the weight loss in data set [1] is given as 4 kg.
Regarding `Cc1c(C(=O)NN2CCCCC2)nn(-c2ccc(Cl)cc2Cl)c1-c1ccc(Cl)cc1` [Rimonabant], in data set [2], the side-effect entry is on record as “side-effect of central nerve disorder”.
As to `CC(C)CC(N(C)C)C1(c2ccc(Cl)cc2)CCC1` (stereo not drawn) [Sibutramine], the side-effect result in data set [2] is given as “cardiovascular side-effects”.
On to “SEQ ID NO. 23 - Fc conjugates: conjugate of oxyntomodulin derivative (SEQ ID NO. 23), cysteine 24, MAL-10K-ALD PEG and immunoglobulin Fc (HXQGTFTSDYSKYLDEKRAKEFVCWLMNT; not fully specified; conjugate chemistry not built; chains of the parent or of the whole protein)”, for which the EC50 in data set [3] is 5.4 nM; in data set [4], 15.8 nM.
“SEQ ID NO. 33 - Fc conjugates: conjugate of oxyntomodulin derivative (SEQ ID NO. 33), cysteine 30, MAL-10K-ALD PEG and immunoglobulin Fc (HXQGTFTSDYAKYLDEKRAKEFVQWLMNTC; conjugate chemistry not built; chains of the parent or of the whole protein)”: the EC50 in data set [3] was 11.7 nM; in data set [4] it was 85.9 nM.
Take “SEQ ID NO. 34 - Fc conjugates: conjugate of oxyntomodulin derivative (SEQ ID NO. 34), cysteine 30, MAL-10K-ALD PEG and immunoglobulin Fc (YXQGTFTSDYSKYLDEKRAKEFVQWLMNTC; conjugate chemistry not built; chains of the parent or of the whole protein)”: the figures for the EC50 in data set [3] and in data set [4] were 168 nM and 8 nM, respectively.

The values are drawn from patent US10363320B2, “Conjugate comprising oxyntomodulin and an immunoglobulin fragment, and use thereof” (HANMI SCIENCE CO., LTD, priority 2011, dated 2019).
